By Kd is commonly meant the concentration at which binding is half-saturated. The term koff denotes the first-order rate constant of dissociation. Higher therefore signals fast dissociation.

The text below walks through data of publication PMC5469797 (2017).

In assay [1] the target is T1, catalytic domain of muPA (Gly2-Gly244, C122A) inhibited at the active site with Glu-Gly-Arg-chloromethylketone (murine, irreversible active site binding ligand Glu-Gly-Arg-chloromethylketone (EGR-cmk) in the active site). The assay can be described thus: SPR; EGR-cmk inhibited.
Assay [2] has as its target T2, full-length muPA inhibited at the active site with Glu-Gly-Arg-chloromethylketone (murine, UniProt P06869 21-433, irreversible active site binding ligand Glu-Gly-Arg-chloromethylketone (EGR-cmk) in the active site). The assay can be described thus: SPR; EGR-cmk inhibited.
Assay [3] has as its target T3, full-length murine urokinase-type plasminogen activator (muPA) (murine, UniProt P06869 21-433). Briefly: SPR. A general note: Surface plasmon resonance follows binding to a sensor surface in real time, without labels.
Assay [4] deals with T4, catalytic serine protease domain of murine urokinase-type plasminogen activator (muPA), Gly2-Gly244, C122A (murine). Briefly: SPR.
Assay [5] concerns the target T1, catalytic domain of muPA (Gly2-Gly244, …). The assay can be described thus: SPR; EGR-cmk inhibited. This is another data set of the same source.
Assay [6] deals with T2, full-length muPA inhibited at the …. Briefly: SPR; EGR-cmk inhibited. The source holds these as a separate data set.
Assay [7] has as its target T3, full-length murine urokinase-type …. The assay can be described thus: SPR. This is another data set of the same source.
Assay [8] deals with T4, catalytic serine protease domain of …. Briefly: SPR. This is another data set of the same source.

T1 sequence (chain, as listed by the source C122A): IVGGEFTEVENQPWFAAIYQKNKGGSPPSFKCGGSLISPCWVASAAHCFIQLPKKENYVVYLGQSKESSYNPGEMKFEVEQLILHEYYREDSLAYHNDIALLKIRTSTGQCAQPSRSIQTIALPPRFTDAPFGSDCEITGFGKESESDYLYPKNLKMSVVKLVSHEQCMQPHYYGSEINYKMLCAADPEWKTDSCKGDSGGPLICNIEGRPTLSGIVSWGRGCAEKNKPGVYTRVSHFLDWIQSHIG
T4 sequence (chain, as listed by the source C122A): as above
T3 sequence (P06869 21-433): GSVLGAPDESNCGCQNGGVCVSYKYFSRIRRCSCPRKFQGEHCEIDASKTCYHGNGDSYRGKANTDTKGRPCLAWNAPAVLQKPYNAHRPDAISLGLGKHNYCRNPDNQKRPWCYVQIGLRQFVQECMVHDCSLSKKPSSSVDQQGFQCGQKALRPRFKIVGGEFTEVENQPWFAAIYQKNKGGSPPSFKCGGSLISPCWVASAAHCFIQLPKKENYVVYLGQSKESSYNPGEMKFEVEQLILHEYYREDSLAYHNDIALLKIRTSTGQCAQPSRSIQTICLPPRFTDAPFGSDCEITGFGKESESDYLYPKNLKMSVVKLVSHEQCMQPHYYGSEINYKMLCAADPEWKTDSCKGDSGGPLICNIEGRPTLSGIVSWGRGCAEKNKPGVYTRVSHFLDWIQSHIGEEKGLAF
T2 sequence (P06869 21-433): as above

B1: anti-muPA allosteric nanobody Nb7 (VHH)
VHH: QVQLQESGGGLVQPGGSLRLSCAASGFTLGYYAIGWFRRAPGKEREGVSCISSSGGSTNYADSVKGRFTISRDNAKNTVDLQMNSLKPEDTAIYYCAAEWVPPGYGATVQALCNNAGYGMEYWGKGTQVTVSS
Consider B1, for which the dissociation constant Kd in assay [1] turned out to be 16.7 nM; in assay [2], 19.3 nM; in assay [3], 7.5 nM; in assay [4] it was 11.2 nM. For the same molecule, the koff was 0.00101 s⁻¹ in assay [5], 0.00084 s⁻¹ in assay [6], 0.00054 s⁻¹ in assay [7] and 0.0011 s⁻¹ in assay [8].
